Experimental data as given in US20220259317A1.

Target: FLT3 CAR (Short Form; NC7 based FLT3 CAR), SEQ ID NO: 1/29
Assay: flow cytometry of FLT3 CAR transduced T cells stained with biotinylated protein L and streptavidin PE

FLT3 CAR (Short Form; NC7 based FLT3 CAR), SEQ ID NO: 1/29, sequence (chain, as listed by the source): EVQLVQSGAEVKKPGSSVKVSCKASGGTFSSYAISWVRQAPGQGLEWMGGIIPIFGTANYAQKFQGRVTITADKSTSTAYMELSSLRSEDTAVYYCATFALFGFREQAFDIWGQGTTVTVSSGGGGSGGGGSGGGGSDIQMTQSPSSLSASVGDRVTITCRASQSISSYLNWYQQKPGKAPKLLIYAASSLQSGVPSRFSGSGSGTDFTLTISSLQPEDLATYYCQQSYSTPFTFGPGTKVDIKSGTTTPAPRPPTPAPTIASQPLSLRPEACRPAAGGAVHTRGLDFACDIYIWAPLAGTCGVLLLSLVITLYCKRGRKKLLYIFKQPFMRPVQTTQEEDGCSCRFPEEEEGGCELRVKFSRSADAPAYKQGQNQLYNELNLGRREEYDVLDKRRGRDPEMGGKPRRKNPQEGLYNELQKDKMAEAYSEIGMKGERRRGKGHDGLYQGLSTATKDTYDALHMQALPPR

% positive cells: 77.1%
Substance: biotinylated protein L (Genscript)
